The source of these data is US20230340128A1 (Xencor, published 2023).

Usually Kd stands for a measure of binding affinity in units of concentration. The low end stands for higher affinity, the high end for lower affinity. In general, koff refers to a measure of how fast the partners let go of each other. Read a low koff as slow dissociation. As usually defined, the kon is the second-order rate constant of association. Read a low kon as slow association. As a reminder, the EC50 (read off the curve) is the concentration needed to bring the measured effect to its halfway point. A low value points to greater potency.

In assay [1] the target is T1, human mesothelin (MSLN) (human, UniProt Q13421 296-580, limits assumed).
T1 construct: Antigen of the Octet KD values
Put plainly: BLI (Octet), bsAb in 1+1 Fab-scFv-Fc format. On the technique in general: BLI is a label-free optical method that tracks binding on a fibre tip over time.

Assay [2] has as its target T2, MSLN on OVCAR8 cells (~90K MSLN antigens/cell) (UniProt Q13421 296-598). Put plainly: binding to OVCAR8 cells, MFI APC against mAb concentration.
The target in assay [3] is T1, human mesothelin (MSLN). Put plainly: BLI (Octet), multiple concentrations, bsAb in 1+1 Fab-scFv-Fc format; lower table, column 'human MSLN (M)'.
Assay [4] concerns the target T2, MSLN on OVCAR8 cells (~90K MSLN …). Put plainly: binding to OVCAR8 cells, MFI APC against mAb concentration. The source holds these as a separate data set.
For assay [5], the target named is T1, human mesothelin (MSLN). Put plainly: KD quoted in the FIG. 25 legend; Octet (BLI) per FIGS. 20-21.

Read-outs that look alike come from different tables or passages of the source.

B1: XENP32561 (bispecific antibody)
chain 1: QVQLVQSGAEVKKPGASVKVSCKASGYTFTSYWMHWVRQAPGQGLEWMGMIHPNSDNTIYYEKFQGRVTMTVDKSISTAYMELSRLRSDDTAVYYCAIIITPVVPKFDYWGQGTLVTVSSASTKGPSVFPLAPSSKSTSGGTAALGCLVKDYFPEPVTVSWNSGALTSGVHTFPAVLQSSGLYSLSSVVTVPSSSLGTQTYICNVNHKPSDTKVDKKVEPKSCDKTHTCPPCPAPPVAGPSVFLFPPKPKDTLMISRTPEVTCVVVDVKHEDPEVKFNWYVDGVEVHNAKTKPREEEYNSTYRVVSVLTVLHQDWLNGKEYKCKVSNKALPAPIEKTISKAKGQPREPQVYTLPPSREEMTKNQVSLTCDVSGFYPSDIAVEWESDGQPENNYKTTPPVLDSDGSFFLYSKLTVDKSRWEQGDVFSCSVMHEALHNHYTQKSLSLSPGK
chain 2: not shown
chain 3: DIVMTQSPDSLAVSLGERATINCKASHSVGTSVAWYQQKPGQSPKLLIYWASTRHTGVPDRFTGSGSGTDFTLTISSLQAEDVAVYFCQQYSSYPLTFGAGTKLEIKRTVAAPSVFIFPPSDEQLKSGTASVVCLLNNFYPREAKVQWKVDNALQSGNSQESVTEQDSKDSTYSLSSTLTLSKADYEKHKVYACEVTHQGLSSPVTKSFNRGEC
Consider B1, for which, in assay [1], binding was characterised by a dissociation constant (Kd) of 0.355 nM, the Response came out at 1.08, the koff turned out to be 0.000215 s⁻¹ and the kon turned out to be 606000 M⁻¹ s⁻¹. Moreover, the “EC50 (read off the curve)” value in assay [2] is approximately 0.2 µg/mL. The molecule further displayed a dissociation constant (Kd) in assay [3] of 0.45 nM.

B2: XENP32748 (bispecific antibody)
chain 1: QVQLVQSGAEVKKPGASVKVSCKASGYTFTSYWMHWVRQAPGQGLEWMGMIHPNSDNTIYYEKFQGRVTMTVDKSISTAYMELSRLRSDDTAVYYCAIIITPVVPKFDYWGQGTLVTVSSASTKGPSVFPLAPSSKSTSGGTAALGCLVKDYFPEPVTVSWNSGALTSGVHTFPAVLQSSGLYSLSSVVTVPSSSLGTQTYICNVNHKPSDTKVDKKVEPKSCDKTHTCPPCPAPPVAGPSVFLFPPKPKDTLMISRTPEVTCVVVDVKHEDPEVKFNWYVDGVEVHNAKTKPREEEYNSTYRVVSVLTVLHQDWLNGKEYKCKVSNKALPAPIEKTISKAKGQPREPQVYTLPPSREEMTKNQVSLTCDVSGFYPSDIAVEWESDGQPENNYKTTPPVLDSDGSFFLYSKLTVDKSRWEQGDVFSCSVMHEALHNHYTQKSLSLSPGK
chain 2: QVQLVQSGAEVKKPGASVKVSCKASGYTFTSYWMHWVRQAPGQGLEWMGMIHPNSDNTIYYEKFQGRVTMTVDKSISTAYMELSRLRSDDTAVYYCAIIITPVVPKFDYWGQGTLVTVSSASTKGPSVFPLAPSSKSTSGGTAALGCLVKDYFPEPVTVSWNSGALTSGVHTFPAVLQSSGLYSLSSVVTVPSSSLGTQTYICNVNHKPSNTKVDKKVEPKSCGGGGSGGGGSQAVVTQEPSLTVSPGGTVTLTCGSSTGAVTTSNYANWVQQKPGKSPRGLIGGTNKRAPGVPARFSGSLLGGKAALTISGAQPEDEADYYCALWYSNHWVFGGGTKLTVLGKPGSGKPGSGKPGSGKPGSEVQLVESGGGLVQPGGSLRLSCAASGFTFSTYAMNWVRQAPGKGLEWVGRIRSKANNYATYYADSVKGRFTISRDDSKNTLYLQMNSLRAEDTAVYYCVRHGNFGDSYVSWFAYWGQGTLVTVSSGGGGSGGGGSKTHTCPPCPAPPVAGPSVFLFPPKPKDTLMISRTPEVTCVVVDVKHEDPEVKFNWYVDGVEVHNAKTKPREEQYNSTYRVVSVLTVLHQDWLNGKEYKCKVSNKALPAPIEKTISKAKGQPREPQVYTLPPSREQMTKNQVKLTCLVKGFYPSDIAVEWESNGQPENNYKTTPPVLDSDGSFFLYSKLTVDKSRWQQGNVFSCSVMHEALHNHYTQKSLSLSPGK
chain 3: DIVMTQSPDSLAVSLGERATINCKASHDVLTSVAWYQQKPGQSPKLLIYWASTRHTGVPDRFTGSGSGTDFTLTISSLQAEDVAVYFCQQYSSYPLTFGAGTKLEIKRTVAAPSVFIFPPSDEQLKSGTASVVCLLNNFYPREAKVQWKVDNALQSGNSQESVTEQDSKDSTYSLSSTLTLSKADYEKHKVYACEVTHQGLSSPVTKSFNRGEC
Turning to B2, the “EC50 (read off the curve)” value in assay [4] was approximately 0.04 µg/mL. Binding in assay [5] was put at a Kd of 0.74 nM.

B3: XENP32745 (bispecific antibody)
chain 1: QVQLVQSGAEVKKPGASVKVSCKASGYTFTSYWMHWVRQAPGQGLEWMGMIHPNSDNTIYYEKFQGRVTMTVDKSISTAYMELSRLRSDDTAVYYCAIIITPVVPKFDYWGQGTLVTVSSASTKGPSVFPLAPSSKSTSGGTAALGCLVKDYFPEPVTVSWNSGALTSGVHTFPAVLQSSGLYSLSSVVTVPSSSLGTQTYICNVNHKPSDTKVDKKVEPKSCDKTHTCPPCPAPPVAGPSVFLFPPKPKDTLMISRTPEVTCVVVDVKHEDPEVKFNWYVDGVEVHNAKTKPREEEYNSTYRVVSVLTVLHQDWLNGKEYKCKVSNKALPAPIEKTISKAKGQPREPQVYTLPPSREEMTKNQVSLTCDVSGFYPSDIAVEWESDGQPENNYKTTPPVLDSDGSFFLYSKLTVDKSRWEQGDVFSCSVMHEALHNHYTQKSLSLSPGK
chain 2: QVQLVQSGAEVKKPGASVKVSCKASGYTFTSYWMHWVRQAPGQGLEWMGMIHPNSDNTIYYEKFQGRVTMTVDKSISTAYMELSRLRSDDTAVYYCAIIITPVVPKFDYWGQGTLVTVSSASTKGPSVFPLAPSSKSTSGGTAALGCLVKDYFPEPVTVSWNSGALTSGVHTFPAVLQSSGLYSLSSVVTVPSSSLGTQTYICNVNHKPSNTKVDKKVEPKSCGGGGSGGGGSQAVVTQEPSLTVSPGGTVTLTCGSSTGAVTTSNYANWVQQKPGKSPRGLIGGTNKRAPGVPARFSGSLLGGKAALTISGAQPEDEADYYCALWYSNHWVFGGGTKLTVLGKPGSGKPGSGKPGSGKPGSEVQLVESGGGLVQPGGSLRLSCAASGFTFSTYAMNWVRQAPGKGLEWVGRIRSKANNYATYYADSVKGRFTISRDDSKNTLYLQMNSLRAEDTAVYYCVRHGNFGDSYVSWFAYWGQGTLVTVSSGGGGSGGGGSKTHTCPPCPAPPVAGPSVFLFPPKPKDTLMISRTPEVTCVVVDVKHEDPEVKFNWYVDGVEVHNAKTKPREEQYNSTYRVVSVLTVLHQDWLNGKEYKCKVSNKALPAPIEKTISKAKGQPREPQVYTLPPSREQMTKNQVKLTCLVKGFYPSDIAVEWESNGQPENNYKTTPPVLDSDGSFFLYSKLTVDKSRWQQGNVFSCSVMHEALHNHYTQKSLSLSPGK
chain 3: DIVMTQSPDSLAVSLGERATINCKASHSVGTSVAWYQQKPGQSPKLLIYWASTRHTGVPDRFTGSGSGTDFTLTISSLQAEDVAVYFCQQYSSYPLTFGAGTKLEIKRTVAAPSVFIFPPSDEQLKSGTASVVCLLNNFYPREAKVQWKVDNALQSGNSQESVTEQDSKDSTYSLSSTLTLSKADYEKHKVYACEVTHQGLSSPVTKSFNRGEC
Turning to B3, in assay [2], the half-maximal effective concentration (EC50 (read off the curve)) was approximately 0.05 µg/mL. The molecule also yielded a Kd in assay [5] of 0.45 nM.

B4: XENP32562 (bispecific antibody)
chain 1: QVQLVQSGAEVKKPGASVKVSCKASGYTFTSYWMHWVRQAPGQGLEWMGMIHPNSDNTIYYEKFQGRVTMTVDKSISTAYMELSRLRSDDTAVYYCAIIITPVVPKFDYWGQGTLVTVSSASTKGPSVFPLAPSSKSTSGGTAALGCLVKDYFPEPVTVSWNSGALTSGVHTFPAVLQSSGLYSLSSVVTVPSSSLGTQTYICNVNHKPSDTKVDKKVEPKSCDKTHTCPPCPAPPVAGPSVFLFPPKPKDTLMISRTPEVTCVVVDVKHEDPEVKFNWYVDGVEVHNAKTKPREEEYNSTYRVVSVLTVLHQDWLNGKEYKCKVSNKALPAPIEKTISKAKGQPREPQVYTLPPSREEMTKNQVSLTCDVSGFYPSDIAVEWESDGQPENNYKTTPPVLDSDGSFFLYSKLTVDKSRWEQGDVFSCSVMHEALHNHYTQKSLSLSPGK
chain 2: not shown
chain 3: DIVMTQSPDSLAVSLGERATINCKASHDVLTSVAWYQQKPGQSPKLLIYWASTRHTGVPDRFTGSGSGTDFTLTISSLQAEDVAVYFCQQYSSYPLTFGAGTKLEIKRTVAAPSVFIFPPSDEQLKSGTASVVCLLNNFYPREAKVQWKVDNALQSGNSQESVTEQDSKDSTYSLSSTLTLSKADYEKHKVYACEVTHQGLSSPVTKSFNRGEC
As to B4, the “EC50 (read off the curve)” value in assay [4] was approximately 0.2 µg/mL. In assay [1], this molecule came in with a Kd of 0.628 nM, a Response of 1.01, an off-rate (koff) of 0.000409 s⁻¹ and a kon of 651000 M⁻¹ s⁻¹. This molecule gave a Kd in assay [3] of 0.74 nM.
